Laboratory results: patent US20250011430A1

T1: B7H3 on cells (B7H3 on HEK293 cells; B7H3 expressed from plasmid on HEK-293T and QT6 cells) (human) (UniProt Q5ZPR3)
T1 sequence (looked up): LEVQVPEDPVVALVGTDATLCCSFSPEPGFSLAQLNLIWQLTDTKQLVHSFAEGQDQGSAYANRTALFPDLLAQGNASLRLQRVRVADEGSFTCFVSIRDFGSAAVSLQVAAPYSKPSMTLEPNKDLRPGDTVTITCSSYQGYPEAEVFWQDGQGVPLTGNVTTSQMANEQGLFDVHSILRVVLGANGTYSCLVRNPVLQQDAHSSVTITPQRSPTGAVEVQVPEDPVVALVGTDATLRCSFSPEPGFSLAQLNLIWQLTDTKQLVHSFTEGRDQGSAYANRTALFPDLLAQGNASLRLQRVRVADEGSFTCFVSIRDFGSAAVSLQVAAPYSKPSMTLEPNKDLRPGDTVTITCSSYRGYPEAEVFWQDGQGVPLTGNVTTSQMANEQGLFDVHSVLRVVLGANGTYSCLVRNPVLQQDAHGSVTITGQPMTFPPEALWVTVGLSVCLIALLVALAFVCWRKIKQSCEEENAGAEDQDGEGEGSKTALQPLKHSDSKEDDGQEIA

B1: anti-B7H3 antibody 2B8 (antibody, V domains shown)
VH: QVQLQQSGPELVRPGVSVKISCKVSGYTFTDGAMHWVKRSHAKSLEWIGIINTNSGNTNYNQKFQGKATMTVDKSSSTAYMELARLTSEDSAIYYCARGVFYYGYGAWFAYWGQGTLVTVSA
VL: DVQITQSPSYLTASPGETIIINCRASKTISNYLAWYQEKPGKTNKLLIYSGSTLQSGIPSRFSGSGSDTDFTLTISSLEPEDFAMYYCQQHHEYPLTFGAGTKLELKR
B2: anti-B7H3 antibody 23H1 (antibody, V domains shown)
VH: EVKLVESGGGLVQPGGSLRLSCATSGFTFTDYYMSWVRQPPGKALEWLGFIRNKVNDYTTEYSVSVKGRFTISRDNSQTILYLQMNTLRAEDSATYYCARDSPYRPFAYWGQGTLVTVSA
VL: DIVMTQSPSSLTVTAGENVTMSCKSSQTLLNNGNQKNFLTWYQQKPGQPPKLLIYLASTRESGVPDRFTGSGSGTDFTLTISSVQAEDLAVYYCQNDYTYPLTFGAGTKLELKR
B3: anti-B7H3 antibody 6F7 (antibody, V domains shown)
VH: EVKLVESGGGLVQPGGSLRLSCATSGFTFTDYYMSWVRQPPGKALEWLGFIRNKANGYTTEYSASVKGRFTISSDDSQSILYLQMNTLRAEDSATYYCARDSHYRPFAYWGQGTLVTVSA
VL: DIQMTQSPSSLTVTAGEKVTMSCKSSQSLLNSGNQNNYLTWYQQKPGQPPKLLIYLASTRDSGVPDRFTGSGSGTDFTLTISSVQAEDLAVYYCQNDYTYPLTFGAGTKLELKR
B4: humanized 6F7 with light chain variable region LV1 (antibody, V domains shown)
VH: EVQLVESGGGLVQPGGSLRLSCAASGFTFTDYYMSWVRQAPGKGLEWVAFIRNKANGYTTEYSASVKGRFTISRDDSKNSLYLQMNSLRAEDTAVYYCARDSHYRPFAYWGQGTLVTVSS
VL: DIVMTQSPLSLPVTPGEPASISCKSSQSLLNSGNQNNYLTWYLQKPGQSPQLLIYLASTRDSGVPDRFSGSGSGTDFTLKISRVEAEDVGVYYCQNDYTYPLTFGGGTKVEIKR
B5: humanized 6F7 with light chain variable region LV2 (antibody, V domains shown)
VH: EVQLVESGGGLVQPGGSLRLSCAASGFTFTDYYMSWVRQAPGKGLEWVAFIRNKANGYTTEYSASVKGRFTISRDDSKNSLYLQMNSLRAEDTAVYYCARDSHYRPFAYWGQGTLVTVSS
VL: DIVMTQSPDSLAVSLGERATINCKSSQSLLNSGNQNNYLTWYQQKPGQPPKLLIYLASTRDSGVPDRFSGSGSGTDFTLTISSLQAEDVAVYYCQNDYTYPLTFGGGTKVEIKR
B6: humanized 26B6 (antibody, V domains shown)
VH: EVQLVQSGAEVKKPGASVKVSCKASGYTFTEYTMHWVRQAPGQGLEWIGGINPNTGGTTYNQKFNGRVTMTRDTSISTAYMELSSLRSEDTAVYYCTRPYRDDGGFHWYFDVWGQGTLVTVSS
VL: EIVLTQSPATLSLSPGERATLSCSASSSVSYMQWYQQKPGLAPRLLIYDTSKLTSGIPDRFSGSGSGTDFTLTISRLEPEDFAVYYCQQWSSNPLTFGGGTKVEIKR
B7: anti-B7H3 antibody 26B6 (antibody, V domains shown)
VH: EVQLQQSGPELVKPGASVKISCKTSGYAFTEYTMHWVKQSQGKSLEWIGGINPNTGGTTYNQKFNGKATLTVDRSSSTAYMELRSLTSEDSAVYYCTRPYRDDGGFHWYFDVWGAGTAVTVSS
VL: QIVLTQSPAVMSTSPGEKVTMTCSASSSVSYMQWYQQKSGTSPKRWIYDTSKLTSGVPARFSGSGSGTSYSLTISSMEAEDAATYYCQQWSSNPLTFGAGTKLELKR
B8: huM30 (antibody, from another filing, V domains shown)
VH: QVQLVQSGAEVKKPGSSVKVSCKASGYTFTNYVMHWVRQAPGQGLEWMGYINPYNDDVKYNEKFKGRVTITADESTSTAYMELSSLRSEDTAVYYCARWGYYGSPLYYFDYWGQGTLVTVSS
VL: EIVLTQSPATLSLSPGERATLSCRASSRLIYMHWYQQKPGQAPRPLIYATSNLASGIPARFSGSGSGTDFTLTISSLEPEDFAVYYCQQWNSNPPTFGQGTKVEIK

Assays:
[1] = target: human B7H3 ECD-His (human) (UniProt Q5ZPR3); assay: ForteBio BLI, antibody on AHQ sensor, 60 nM antigen, 1:1 model
[2] = target: human B7H3 ECD-His (human) (UniProt Q5ZPR3); assay: ForteBio BLI
[3] = target: T1, B7H3 on cells (B7H3 on HEK293 cells; B7H3 expressed from plasmid on HEK-293T and QT6 cells) (human); assay: flow cytometry on HEK293 cells

Binder | Kd [1] [nM] | Kd [2] [nM] | EC50 [3] [µg/mL]
B1 | 0.323 |  | 
B2 | 0.685 |  | 
B3 | 0.537 |  | 
B4 |  | 37 | 
B5 |  | 14.2 | 
B6 |  | 0.753 | 
B7 | 0.435 |  | 
B8 | 0.346 | 0.277 | 0.0974
